Patent publication US7195897B2, “Feedback-resistant homoserine transsuccinylases having a modified c-terminus” (priority 2002, dated 2007)
Where two headings read alike, the source gives them in different places.

B1: pKP413GAP: E. coli wild-type homoserine transsuccinylase (MetA, SEQ ID No. 2) expressed from starting plasmid pKP413GAP under the GAPDH promoter (protein, listed as Escherichia coli)
chain: MPIRVPDELPAVNFLREENVFVMTTSRASGQEIRPLKVLILNLMPKKIETENQFLRLLSNSPLQVDIQLLRIDSRESRNTPAEHLNNFYCNFEDIQDQNFDGLIVTGAPLGLVEFNDVAYWPQIKQVLEWSKDHVTSTLFVCWAVQAALNILYGIPKQTRTEKLSGVYEHHILHPHALLTRGFDDSFLAPHSRYADFPAALIRDYTDLEILAETEEGDAYLFASKDKRIAFVTGHPEYDAQTLAQEFFRDVEAGLDPDVPYNYFPHNDPQNTPRASWRSHGNLLFTNWLNYYVYQITPYDLRHMNPTLD

Columns and labels:
[1] = system: homoserine transsuccinylase; assay: Homoserine transsuccinylase activity test (Lee et al., 5,5'-dithiobis(2-nitrobenzoic acid), 412 nm), activity and inhibition by SAM; type: biochemical, E. coli; settings: cell extract; 3 mM homoserine, 0.3 mM succinyl-CoA, 50 mM potassium phosphate buffer pH 7.5
[2] = system: homoserine transsuccinylase; settings: cell extract of E. coli W3110 transformant; 1 mM homoserine, 0.1 mM succinyl-CoA, 50 mM Tris/Cl pH 7.6
[3] = target: T1, E. coli homoserine transsuccinylase (MetA), wild type, SEQ ID NO: 2 (plasmid pKP413GAP) (Escherichia coli, UniProt P07623); settings: pH 7.5, read-out: Activity (%) in the presence of 1 mM SAM
[4] = target: T1, E. coli homoserine transsuccinylase (MetA), wild type, SEQ ID NO: 2 (plasmid pKP413GAP); assay: biochemical; settings: pH 7.6, read-out: Activity (%) in the presence of 1 mM L-methionine

Row | Molecule | Activity (U/mg) [1] | Activity (U/mg) [2] | activity at 1000 µM [3] | activity at 1000 µM [4]
1 | pBaBmetAext2: MetA variant with altered, extended carboxy-terminus from amino acid 297 onwards (SEQ ID No. 12) (SYIHQYLLVNNSTELWMHTRLIKRPHCDEWQGGA) | 0.173 U/mg | 0.045 U/mg |  | 
2 | C[S+](CC[C@H](N)C(=O)[O-])C[C@H]1O[C@@H](n2cnc3c(N)ncnc32)[C@H](O)[C@@H]1O (some centres unmarked) [SAM, S-Adenosylmethionine] |  |  | 0.5% | 
3 | CSCC[C@H](N)C(=O)O [L-methionine] |  |  |  | 2%
4 | pBaBmetAext: MetA variant with altered, extended carboxy-terminus from amino acid 297 onwards (SEQ ID No. 10) (SYIHHYLLVNNSTELWMHTRLIKRPHCDEWQGGA) | 0.082 U/mg | 0.011 U/mg |  | 
5 | B1 | 0.62 U/mg | 0.155 U/mg |  | 
